Data: PMC13215203, “Phosphorylation remodels the mitotic centrosome matrix to generate bipartite γ-tubulin complex docking sites” (Science Advances, 2026)
Blank lines part the entries; values can stand above or below the binder they belong to.

How the values were obtained:
[1] = biological target: the molecule itself; test: SEC-MALS; Superose 6 increase 10/300 or Superdex 200 increase 10/300 in 20 mM tris-HCl pH 7.5, 50 mM NaCl, 5 mM EGTA, 2 mM MgCl2, 1 mM DTT; 120 μl of ~2.0 mg/ml protein loaded; with or without PLK1 phosphorylation
[2] = biological target: T1, M6HH-tagged SPD-5 amino acids 1-113 (PRGB1), not phosphorylated (C. elegans, UniProt P91349 1-113); test: pull-down; MBP pull-down: purified SPD-5 fragments mixed (2.0 μM) with or without PLK1(T194D) in kinase buffer, then 75 nM each with anti-MBP antibody in lysis buffer 2 h at 4°C and protein A beads 1 h; M6HH-tagged fragment is the bait; immunoblot; conditions: both partners purified
T1 construct: source: E. coli BL21(DE3) pLysS, purified (Ni-NTA)
T1 sequence (looked up): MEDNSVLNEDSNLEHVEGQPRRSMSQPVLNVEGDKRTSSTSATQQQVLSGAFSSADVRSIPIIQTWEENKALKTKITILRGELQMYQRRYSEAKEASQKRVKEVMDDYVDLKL

[3] = biological target: T2, untagged SPD-5 amino acids 101-473, not phosphorylated (C. elegans, UniProt P91349 101-473); test: as above; conditions: both partners purified
T2 construct: also called fragment containing the γTuNA-In and PRGB2; source: E. coli BL21(DE3) pLysS, purified (glutathione agarose, cut from GST with PreScission or HRV-3C protease)
T2 sequence (looked up): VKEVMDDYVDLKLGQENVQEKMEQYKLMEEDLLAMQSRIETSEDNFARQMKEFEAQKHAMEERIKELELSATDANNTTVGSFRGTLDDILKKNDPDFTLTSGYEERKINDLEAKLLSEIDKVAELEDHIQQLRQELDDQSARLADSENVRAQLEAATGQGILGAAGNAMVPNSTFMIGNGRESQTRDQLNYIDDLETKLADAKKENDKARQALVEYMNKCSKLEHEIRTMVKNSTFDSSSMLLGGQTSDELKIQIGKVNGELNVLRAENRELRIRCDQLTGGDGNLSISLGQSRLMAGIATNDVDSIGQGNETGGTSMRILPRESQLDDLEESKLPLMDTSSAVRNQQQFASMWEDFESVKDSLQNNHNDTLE

B1: M6HH-tagged SPD-5 amino acids 1-345, not phosphorylated (domain or fragment, C. elegans, UniProt P91349 1-345, looked up)
chain: MEDNSVLNEDSNLEHVEGQPRRSMSQPVLNVEGDKRTSSTSATQQQVLSGAFSSADVRSIPIIQTWEENKALKTKITILRGELQMYQRRYSEAKEASQKRVKEVMDDYVDLKLGQENVQEKMEQYKLMEEDLLAMQSRIETSEDNFARQMKEFEAQKHAMEERIKELELSATDANNTTVGSFRGTLDDILKKNDPDFTLTSGYEERKINDLEAKLLSEIDKVAELEDHIQQLRQELDDQSARLADSENVRAQLEAATGQGILGAAGNAMVPNSTFMIGNGRESQTRDQLNYIDDLETKLADAKKENDKARQALVEYMNKCSKLEHEIRTMVKNSTFDSSSMLLGG
notes: source: E. coli BL21(DE3) pLysS, purified (Ni-NTA)
stoichiometry N [1]: 2

binding result [2]: binds
B2: Halo-tagged SPD-5 amino acids 135-200, not phosphorylated (domain or fragment, C. elegans, UniProt P91349 135-200, looked up)
chain: MQSRIETSEDNFARQMKEFEAQKHAMEERIKELELSATDANNTTVGSFRGTLDDILKKNDPDFTLT
notes: as for B1

B3: untagged SPD-5 amino acids 1-473, not phosphorylated (domain or fragment, C. elegans, UniProt P91349 1-473, looked up)
chain: MEDNSVLNEDSNLEHVEGQPRRSMSQPVLNVEGDKRTSSTSATQQQVLSGAFSSADVRSIPIIQTWEENKALKTKITILRGELQMYQRRYSEAKEASQKRVKEVMDDYVDLKLGQENVQEKMEQYKLMEEDLLAMQSRIETSEDNFARQMKEFEAQKHAMEERIKELELSATDANNTTVGSFRGTLDDILKKNDPDFTLTSGYEERKINDLEAKLLSEIDKVAELEDHIQQLRQELDDQSARLADSENVRAQLEAATGQGILGAAGNAMVPNSTFMIGNGRESQTRDQLNYIDDLETKLADAKKENDKARQALVEYMNKCSKLEHEIRTMVKNSTFDSSSMLLGGQTSDELKIQIGKVNGELNVLRAENRELRIRCDQLTGGDGNLSISLGQSRLMAGIATNDVDSIGQGNETGGTSMRILPRESQLDDLEESKLPLMDTSSAVRNQQQFASMWEDFESVKDSLQNNHNDTLE
notes: also called SPD-5 N terminus; source: E. coli BL21(DE3) pLysS, purified (glutathione agarose, cut from GST with PreScission or HRV-3C protease; gel filtration)
stoichiometry N [1]: 2

B4: untagged SPD-5 amino acids 1-473, phosphorylated by PLK1 (domain or fragment, C. elegans, UniProt P91349 1-473, looked up)
chain: B3 chain
modifications: phosphorylated in vitro by PLK1; predicted sites S5, S11, S170, T178, T198, T274, T335, S339, S340
notes: also called SPD-5 N terminus; source: E. coli BL21(DE3) pLysS, purified (glutathione agarose, cut from GST), then incubated with PLK1 and ATP
stoichiometry N [1]: 2

B5: M6HH-tagged SPD-5 amino acids 1-473, not phosphorylated (domain or fragment, C. elegans, UniProt P91349 1-473, looked up)
chain: B3 chain
notes: as for B1
stoichiometry N [1]: 2

binding result [3]: binds
B6: M6HH-tagged SPD-5 amino acids 1-101 (PRGB1), not phosphorylated (domain or fragment, C. elegans, UniProt P91349 1-101, looked up)
chain: MEDNSVLNEDSNLEHVEGQPRRSMSQPVLNVEGDKRTSSTSATQQQVLSGAFSSADVRSIPIIQTWEENKALKTKITILRGELQMYQRRYSEAKEASQKRV
notes: as for B1
